For orientation: Kd means the free concentration of one partner at which half of the binding sites on the other are occupied at equilibrium, for simple one-to-one binding. Broadly, the koff is the first-order rate constant of dissociation. In general, kon refers to the second-order rate constant of association.

The text below walks through data of patent publication US20240400686A1 (CITY OF HOPE, published 2024).

One assay deals with Cyno CD3εδ (cynomolgus monkey). Put plainly: SPR, sensorgrams at 3-100 nM; set-up not given. (In general: SPR reads the build-up and loss of mass on a sensor chip optically.)
Assay [1] has as its target T1, CD3 epsilon N-terminal peptide (SEQ ID NO:13) (human and cynomolgus monkey (first …)).
T1 construct: also called CD3 peptide; CD3 epsilon peptide
T1 peptide: [pGlu]DGNEEMGGITQTPYK
Kind of assay: SPR on a CD3 peptide, concentration series 3-300 nM (sensorgrams in FIG. 25B).

Assay [2] addresses T1, CD3 epsilon N-terminal peptide (SEQ ID …). Kind of assay: SPR on a CD3 peptide, concentration series 3-300 nM.
Assay [3] shares this target. The description is as above.
For assay [4] the target is unchanged. Kind of assay: SPR on a CD3 peptide, concentration series 3-300 nM (sensorgrams in FIG. 25A).
Assay [5] has the same target. Put plainly: SPR on a CD3 peptide, concentration series 3-300 nM.
Assay [6] deals with T2, recombinant human CD3epsilon/CD3gamma extracellular domain fused with human IgA1.Fc (human).
T2 construct: also called human CD3e/CD3g proteins; human CD3 proteins
Put plainly: SPR, Biacore T200: human CD3-IgA immobilised on a CM5 chip, antibody as analyte. The procedure:
Binding affinities for the different antibodies of interest were measured by surface plasmon resonance (SPR), using a Biacore T200 (GE Healthcare). Human CD3-IgA was immobilized to 200 RU on a CM5 (GE Life Sciences) chip using NHS chemistry. Analytes (CD3 antibodies) were diluted 2× in concentrations (from 12.5 nM to 0.125 nM) and flown over chip at a flow rate of 30 µl/min with HBS-EP+ buffer. Data were analyzed using Biacore T200 Evaluation software v3.0.

Substitutions are numbered along the chain they refer to. In names and notes the source's numbering stands. Like-named read-outs stand apart in the source and are kept apart here. Where no end group is shown, it is not given here. [ ]: non-standard residue; d: D form. pGlu = O=C1CC[C@@H](C(=O)O)N1

Chain of Cyno CD3εδ (cynomolgus monkey) (Q95LI5 22-117, stated change not applied, chain 1 of 2): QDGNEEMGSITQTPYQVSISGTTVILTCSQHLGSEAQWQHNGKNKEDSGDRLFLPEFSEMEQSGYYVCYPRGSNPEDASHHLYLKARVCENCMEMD
Chain of Cyno CD3εδ (cynomolgus monkey) (Q95LI8 22-105, stated change not applied, chain 2 of 2, further chain): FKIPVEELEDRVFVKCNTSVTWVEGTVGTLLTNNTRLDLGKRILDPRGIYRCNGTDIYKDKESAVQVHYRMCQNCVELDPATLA

B1: humanized 26H8 Fab (Fab, V domains shown)
VH: QVQLQESGPGLVKPSETLSLTCTASGYTFTNYYIHWVRQSPGKGLEWIGWIYCGDGSTKFNEQFKDRTTLSADHSKTQASLKLSSVTAADTAIYFCARDWAGSYFFDFWGQGTMVTVSS
VL: DIQMTQSPSSLSASVGDRVTITCKSSQSLLNSRTRKNYLAWYQQKPGKAPKLLIYWASTRESGVPSRFSGSGSGTDFTFTISSLQPEDIATYYCKQSYILRTFGGGTKVEIKR
notes: a Fab; also called h26H8 Fab; h26H8
In the assay with Cyno CD3εδ, B1 displayed a Kd of 36 nM, a koff of 0.031 s⁻¹ and a kon of 870000 M⁻¹ s⁻¹. In addition, in assay [1], binding was characterised by a dissociation constant (Kd) of 51.6 nM, the off-rate (koff) worked out at 0.0322 s⁻¹ and the kon came to 623000 M⁻¹ s⁻¹.

B2: H26H8 Fab H35F (Fab, V domains shown)
VH: B1 VH with H35F
VL: B1 VL
notes: Fab' fragment; phenylalanine at position 35 of the heavy chain variable domain; also called h26H8 H35F; h26H8 H35F Fab'
On to B2, for which, in assay [2], the binding result is on record as “no binding (tested: 300 nM)”.

B3: H26H8 Fab Y33S (Fab, V domains shown)
VH: B1 VH with Y33S
VL: B1 VL
notes: Fab' fragment; serine at position 33 of the heavy chain variable domain; also called h26H8 Y33S; h26H8 Y33S Fab'
In the case of B3, the binding result in assay [3] is recorded as “no binding (tested: 300 nM)”.

B4: H26H8 Fab C53S (Fab, V domains shown)
VH: B1 VH with C53S
VL: B1 VL
notes: Fab' fragment; serine at position 53 of the heavy chain variable domain; also called h26H8 C53S
In assay [4], B4 registered a Kd of 116 nM, a koff of 0.0658 s⁻¹ and a kon of 569000 M⁻¹ s⁻¹.

B5: H26H8 Fab H35Y (Fab, V domains shown)
VH: B1 VH with H35Y
VL: B1 VL
notes: Fab' fragment; tyrosine at position 35 of the heavy chain variable domain; also called h26H8 H35Y; h26H8 H35Y Fab'
On to B5, for which, in assay [5], the binding result was “no binding (tested: 300 nM)”.

B6: antibody 3F11 (antibody, V domains shown)
VH: QVQLQQSGPDLVRPGASVKMSCKASGYTFTNYYVHWLNQRPGQGLEWIGWIYPGDGSTKFNEKFKGKTTLTADKSSSTAYILLSSLTSADSAIYFCTRDAGYYFDVWGAGTTVTVSS
VL: DIVMSQSPSSLAVSAGEKVTISCKSSQSLLNNRTRKNYLAWYQQKPGQSPKLLIYWASTRESGVPDRFTGSGSGTDFTLTISSVQAEDLAVYYCKQSYILRTFGGGTKLEIK
notes: Tested as mouse hybridoma antibody (culture supernatant or mAb); also called Clone 3F11
Take B6: in assay [6], the koff amounted to 0.0034 s⁻¹ and the kon stood at 1.12e+07 M⁻¹ s⁻¹.

B7: mouse antibody 26H8 (antibody, V domains shown)
VH: QVQLQQSGPELVKPGASVRMSCKASGYTFTNYYIHWVRQRPGQGLEWIGWIYCGDGSTKFNEQFKDRTTLTADHSSSTAYMLLSSLTSEDSAIYFCARDWAGSYFFDFWGQGTTLTVSS
VL: B6 VL with I21M, N32S
notes: Tested as mouse hybridoma antibody (culture supernatant or mAb); also called Clone 26H8; 261H8
B7: in assay [6], the koff came to 0.00062 s⁻¹ and the kon is 2.3e+06 M⁻¹ s⁻¹.
